Positions count from the first letter of the chain named. Numbers in names are those of the source. Entries after “also recorded” stand apart in the source; their conditions may differ.
B1: T42M: T42M mutation in Salmonella EPSPS enzyme (protein, UniProt P07637 1-427, looked up, variant T42M)
3-phosphoshikimate …: MESLTLQPIARVDGAINLPGSKSVSNRALLLAALACGKTALMNLLDSDDVRHMLNALSALGINYTLSADRTRCDITGNGGALRAPGALELFLGNAGTAMRPLAAALCLGQNEIVLTGEPRMKERPIGHLVDSLRQGGANIDYLEQENYPPLRLRGGFTGGDIEVDGSVSSQFLTALLMTAPLAPKDTIIRVKGELVSKPYIDITLNLMKTFGVEIANHHYQQFVVKGGQQYHSPGRYLVEGDASSASYFLAAGAIKGGTVKVTGIGRKSMQGDIRFADVLEKMGATITWGDDFIACTRGELHAIDMDMNHIPDAAMTIATTALFAKGTTTLRNIYNWRVKETDRLFAMATELRKVGAEVEEGHDYIRITPPAKLQHADIGTYNDHRMAMCFSLVALSDTPVTILDPKCTAKTFPDYFEQLARMSTPA
B2: P106L: A. thaliana EPSPS with Proline at position 106 changed into Leucine (SEQ ID NO:12) (protein, listed as Arabidopsis thaliana)
chain: MAQVSRICNGVQNPSLISNLSKSSQRKSPLSVSLKTQQHPRAYPISSSWGLKKSGMTLIGSELRPLKVMSSVSTAEKASEIVLQPIREISGLIKLPGSKSLSNRILLLAALSEGTTVVDNLLNSDDINYMLDALKRLGLNVETDSENNRAVVEGCGGIFPASIDSKSDIELYLGNAGTAMRLLTAAVTAAGGNASYVLDGVPRMRERPIGDLVVGLKQLGADVECTLGTNCPPVRVNANGGLPGGKVKLSGSISSQYLTALLMSAPLALGDVEIEIVDKLISVPYVEMTLKLMERFGVSVEHSDSWDRFFVKGGQKYKSPGNAYVEGDASSASYFLAGAAITGETVTVEGCGTTSLQGDVKFAEVLEKMGCKVSWTENSVTVTGPPRDAFGMRHLRAIDVNMNKMPDVAMTLAVVALFADGPTTIRDVASWRVKETERMIAICTELRKLGATVEEGSDYCVITPPKKVKTAEIDTYDDHRMAMAFSLAACADVPITINDPGCTRKTFPDYFQVLERITKH
B3: wild type (WT): Arabidopsis thaliana EPSPS (At2g45300), unmutated, SEQ ID NO:9/10 (protein, listed as Arabidopsis thaliana)
chain: B2 chain with L182P
B4: N44D: A. thaliana EPSPS with Asparagine at position 44 changed into Aspartic Acid (SEQ ID NO:11) (protein, listed as Arabidopsis thaliana)
chain: B2 chain with N120D, L182P
B5: N44D+S179N: A. thaliana EPSPS double mutant N44D and S179N (SEQ ID NO:16) (protein, listed as Arabidopsis thaliana)
chain: B2 chain with N120D, L182P, S255N
B6: N44D+P106L: A. thaliana EPSPS double mutant N44D and P106L (SEQ ID NO:13) (protein, listed as Arabidopsis thaliana)
chain: B2 chain with N120D
B7: G101A: EPSPS with Glycine at position 101 changed into Alanine (position 96 in E. coli; SEQ ID NO:17) (protein, listed as Arabidopsis thaliana)
chain: B2 chain with G177A, L182P

Legend:
[1] = Salmonella EPSPS; cited from earlier work
[2] = Salmonella EPSPS; cited from earlier work; remark: listed apart in the source
[3] = system: E. coli; experiment: Complementation assay in E. coli using A. thaliana EPSPS variants, growth in M9 medium with glyphosate; assay type: cell-based; conditions: 30 mM glyphosate; for glyphosate resistance (bacterial growth, OD600 over time): E. coli BL21 expressing A. thaliana EPSPS variant, M9 medium, 1 mM IPTG, 25° C.
Source text: Each of these EPSPS variants was then cloned as a 1576 bps EcoRI-BamHI fragment into the vector pET302 NT HIS (Invitrogen, product K630203), fusing the EPSPS variants to a 6× His tag and allowing inducible protein expression with IPTG in E. coli. These constructs were introduced into the E. coli expression strain BL21 OAS (Invitrogen) for complementation assays.
E. coli is unable to grow in minimal M9 growth medium supplemented with glyphosate due to inhibition of the activity of the endogenous bacterial EPSP synthase AroA. Bacterial growth can be restored by complementation with a glyphosate resistant plant EPSPS gene. The E. coli strains containing the A. thaliana EPSPS variants were grown overnight in 10 ml LB medium containing 100 μg/ml carbenicillin (Duchefa). Strains were then diluted 4 fold in the same medium and allowed to grow for a further 4 hours. The […] of each culture was then measured and 1.5 ml culture was centrifuged at 4000 rpm for 10 minutes. The bacterial pellet was resuspended in 500 μl M9 medium (12.8 g/l Na2HPO4, 3.0 g/l KH2PO4, 0.5 g/l NaCl, 1.0 g/l NH4Cl, 2.0 g/l glucose, 0.4940 g/l MgSO4.7H2O, 15 mg/l CaCl2.2H2O, thiamine and 10 mg/l FeSO4.7H2O) used to inoculate 10 ml M9 medium containing 1 mM IPTG and 100 μg/ml carbenicillin and 30 mM glyphosate to an OD600 of 0.1. Identical cultures for each strain were also made lacking glyphosate and these were used to assess the growth of each strain without selection. The cultures were then grown at 25° C. and the OD600 was measured over time to assess bacterial growth (see FIG. 2).

[4] = system: Arabidopsis thaliana; experiment: Glyphosate tolerance of transgenic Arabidopsis lines (average seedling weight +Gly/-Gly); assay type: in vivo; conditions: transgenic Arabidopsis lines overexpressing EPSPS gene; MS20 medium, 400 μM glyphosate, 4 weeks
Experimental: The mutated Arabidopsis EPSPS genes tested in E. coli (see Example 1) were cloned into the binary vector pEARLEYGATE100 (The Plant J. 2006; 45:616-629). Briefly, the EPSPS genes were isolated as BamHI and SacI fragments comprising the complete ORF's and then inserted into the same unique sites present in the binary vector. […] This series of binary vectors were electroporated to the Agrobacterium tumefaciens strain GV2260 and bacterial colonies were selected on LB medium containing 100 μg/ml spectinomycin, using methods known to the skilled person.
Seeds of Arabidopsis thaliana (ecotype Colombia) were sown on soil and once germinated a single seedling was placed in a 5 cm×5 cm pot and allowed to grow until the first influorescence appeared. At this stage the plants were then transformed using the floral dip method. Briefly, the Agrobacterium strains were grown overnight in 50 ml liquid LB medium containing 100 μg/ml spectinomycin at 28° C. and then this culture was centrifuged at 4000 rpm for 10 minutes. The pellets were then resuspended in a 5% sucrose solution containing 0.02% Silwet (Lehle Seeds). The Arabidopsis plants were dipped into this culture and then incubated overnight in the dark at 25° C. The plants were then allowed to grow further in the greenhouse and after 7 days the dipping procedure was repeated. The plants were then allowed to set seed which was then germinated on soil. For selection of transformed Arabidopsis seedlings, a solution of glufosinate was prepared (0.1 mg/ml glufosinate ammonium+0.005% silwet) and sprayed on the seedlings. After 7 days the surviving seedlings were identified, grown to maturity and the seeds were collected.
We performed a segregation analysis on the seed of the transgenic lines to estimate the T-DNA copy number. Seed from each of the transgenic lines was sterilized with a 2% hypochlorite solution and washed with sterile water. Approximately 100 seeds per line were then placed on MS20 medium containing 0.1 mg/ml glufosinate ammonium and the number of surviving seedlings was scored after 20 days. The lines with a single T-DNA copy that segregated […] (resistance:sensitivity) to the glufosinate were selected for further phenotyping.
Seeds from the transgenic Arabidopsis lines were sterilized and then placed on MS20 medium containing 0.1 mg/ml glufosinate ammonium and +/−400 μM glyphosate and were grown for 4 weeks. After this period the seedlings were removed from the growth plates and the average seedling weight was determined. The degree of glyphosate resistance for each line was determined by dividing the average seedling weight in the presence of glyphosate by the average seedling weight found in the absence of glyphosate.

[5] = E. coli EPSPS, Eschenburg et al. 2002; cited from earlier work

Row | Molecule | glyphosate resistance (bacterial growth, OD600 over time) [3] | glyphosate resistance (ratio of average seedling weight +Gly/-Gly) [4] | other results
1 | B1 |  |  | higher tolerance for glyphosate [1]: 26 fold; lower affinity for its normal substrate (PEP) [2]: 25 fold
2 | B2 | good level of resistance | reasonable resistance | 
3 | B3 | able to complement bacterial growth at later time points |  | 
4 | B4 | some resistance to glyphosate; also recorded: provides tolerance to glyphosate | lead to glyphosate resistance | 
5 | B5 |  | confers resistance | 
6 | B6 | strongly enhanced | enhanced | enhancement of resistance levels ([3]; N44D combined with P106L, after 18 hours of growth): 2.5 fold
7 | B7 |  |  | Km of PEP [5]: increase

— patent US9624506B2, “Glyphosate resistance enhancement” (Keygene N.V., priority 2011, dated 2017)
